Laboratory results from article PMC9168760, “A novel AMPK activator shows therapeutic potential in hepatocellular carcinoma by suppressing HIF1α‐mediated aerobic glycolysis” (Molecular Oncology, 2022).

Biological target: T1, hypoxia‐inducible factor 1‐alpha (human (endogenous in PLC5), UniProt Q16665 1-826)
T1 construct: HIF1α, endogenous protein of human HCC cells, immunoprecipitated or blotted with HIF1α antibodies; also called HIF1α
Assay: co-IP; cells treated with DMSO or SCT‐1015; immunoprecipitation with HIF1α antibodies, blot for PHD3; 400 μg whole‐cell extract, 4 μg antibody overnight at 4 °C, protein A/G magnetic beads
Settings: partners not purified

T1 sequence (Q16665 whole entry): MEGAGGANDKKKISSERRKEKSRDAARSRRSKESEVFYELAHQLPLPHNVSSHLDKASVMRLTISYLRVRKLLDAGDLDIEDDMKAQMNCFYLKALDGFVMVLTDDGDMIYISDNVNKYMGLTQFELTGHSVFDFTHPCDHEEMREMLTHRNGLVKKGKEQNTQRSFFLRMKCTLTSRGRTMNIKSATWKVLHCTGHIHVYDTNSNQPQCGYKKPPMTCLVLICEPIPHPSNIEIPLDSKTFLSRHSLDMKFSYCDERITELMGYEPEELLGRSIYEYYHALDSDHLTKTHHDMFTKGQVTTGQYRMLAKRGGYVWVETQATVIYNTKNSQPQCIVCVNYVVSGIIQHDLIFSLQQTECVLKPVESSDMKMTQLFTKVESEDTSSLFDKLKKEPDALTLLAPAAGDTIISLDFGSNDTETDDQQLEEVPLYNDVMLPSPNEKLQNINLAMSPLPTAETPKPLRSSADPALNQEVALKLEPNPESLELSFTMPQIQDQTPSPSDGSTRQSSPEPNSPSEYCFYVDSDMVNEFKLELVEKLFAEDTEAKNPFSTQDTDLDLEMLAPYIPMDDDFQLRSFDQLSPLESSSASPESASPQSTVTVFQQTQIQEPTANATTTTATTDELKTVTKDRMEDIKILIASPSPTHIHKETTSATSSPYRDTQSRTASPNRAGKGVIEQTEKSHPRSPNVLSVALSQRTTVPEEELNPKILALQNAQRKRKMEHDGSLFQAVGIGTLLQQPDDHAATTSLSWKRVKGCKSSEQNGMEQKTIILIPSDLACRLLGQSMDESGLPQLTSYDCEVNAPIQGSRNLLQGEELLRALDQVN

B1: prolyl hydroxylase 3 (enzyme, human (endogenous in HCC cells), UniProt Q9H6Z9 1-239, looked up)
chain: MPLGHIMRLDLEKIALEYIVPCLHEVGFCYLDNFLGEVVGDCVLERVKQLHCTGALRDGQLAGPRAGVSKRHLRGDQITWIGGNEEGCEAISFLLSLIDRLVLYCGSRLGKYYVKERSKAMVACYPGNGTGYVRHVDNPNGDGRCITCIYYLNKNWDAKLHGGILRIFPEGKSFIADVEPIFDRLLFFWSDRRNPHEVQPSYATRYAMTVWYFDAEERAEAKKKFRNLTRKTESALTED
notes: PHD3, endogenous protein detected with the PHD3 antibody (Abcam ab30782) in HIF1α immunoprecipitates; also called PHD3; PHD
  fold change of the ratio PHD3/HIF1α in the HIF1α immunoprecipitate, SCT‐1015 against DMSO: 1.6 fold
